The record followed here is US20100203552.

The test system of data set [1] is phosphorylated GST-Bim fusion protein [GST: P08515].
For data set [2], the system named is GST-Bim polypeptide [GST: P08515].
Target sequence in this assay (P08515 whole entry, looked up): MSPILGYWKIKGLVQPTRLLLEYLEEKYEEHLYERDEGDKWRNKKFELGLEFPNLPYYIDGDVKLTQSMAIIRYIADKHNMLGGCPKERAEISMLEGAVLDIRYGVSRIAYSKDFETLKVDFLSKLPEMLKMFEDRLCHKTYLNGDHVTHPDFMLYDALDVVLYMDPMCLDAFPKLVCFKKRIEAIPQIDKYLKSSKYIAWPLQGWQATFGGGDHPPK
Data set [3] addresses GST-Bim polypeptide [GST: P08515]. The source holds these as a separate data set.
Target sequence in this assay (P08515 whole entry, looked up): as above

Chain of phosphorylated GST-Bim fusion protein [GST: P08515] (P08515 whole entry, looked up, the tested form may be a part): as the sequence (P08515 whole entry, looked up) above

In the case of Myc-tagged TRIM2 (myc-TRIM2), the Bim ubiquitination entry in data set [1] is reported as “addition of active MAPK to the reaction enhanced Bim ubiquitination”; in data set [2], “Incubation of TRIM2 polypeptide with Bim resulted in low levels of Bim ubiquitination”.

B1: TRIM2 protein from rat brain lysate / rat cortical neuronal cell lysates (protein)
chain: MQRAGSRTAGPTCQWSRMASEGASIPSPVVRQIDKQFLICSICLERYKNPKVLPCLHTFCERCLQNYIPAHSLTLSCPVCRQTSILPEKGVAALQNNFFITNLMDVLQRTPGSNGEDPSILQTVTAVAAGKPLSCPNHDGNVMEFYCQSCETAMCRECTEGEHAEHPTVPLKDVVEQHKASLQVQLDAVNKRLPEIDSALQFISEIIHQLTNQKASIVDDIHSTFDELQKTLNVRKSVLLMELEVNYGLKHKVLQSQLDTLLQGQESIKSCSNFTAQALNHGTETEVLLVKKQMSEKLNELADQDFPLHPRENDQLDFIVETEGLKKSIHNLGTILTTNAVASETVATGEGLRQTIIGQPMSVTITTKDKDGELCKTGNAYLTAELSTPDGSVADGEILDNKNGTYEFLYTVQKEGDFTLSLRLYDQHIRGSPFKLKVIRSADVSPTTEGVKRRVKSPGSGHVKQKAVKRPASMYSTGKRKENPIEDDLIFRVGTKGRNKGEFTNLQGVAASTSGKILIADSNNQCVQIFSNDGQFKSRFGIRGRSPGQLQRPTGVAVHPSGDIIIADYDNKWVSIFSNDGKFKTKIGSGKLMGPKGVSVDRNGHIIVVDNKACCVFIFQPNGKIVTRFGSRGNGDRQFAGPHFAAVNSSNEIIITDFHNHSVKVFNQEGEFMLKFGSNGEGNGQFNAPTGVAVDSNGNIIVADWGNSRIQVFDGSGSFLSYINTSADPLYGPQGLALTSDGHVVVADSGNHCFKVYRYLQ
Take B1: the “Bim ubiquitination (anti-ubiquitin immunoblot of immunoprecipitated GST-Bim)” value in data set [3] is “immunodepletion of TRIM2 protein reduces Bim ubiquitination in lysates from preconditioned cells to that of control lysates”.
